B1: RO6D8-s10 (antibody, V domains shown)
VH: QVQLVQSGAEVKKPGASVKVSCKASGYTFTNYYMHWVRQAPGQGLEWMGIINPSGGSTSYAQKFQGRVTMTRDTSTSTVYMELSSLRSEDTAVYYCARSSRSSYYLWVLDLWGQGTTVTVSS
VL: AIQMTQSPSSLSASVGDRVTITCRASQGVSTEIAWYQQKPGKAPKLLIYAASSLQSGVPSRFSGSGSGTDFTLTISSLQPEDFATYYCQQFNSYPITFGQGTRLEIK
B2: RO6D8-jlv1011 (antibody, V domains shown)
VH: QVQLVQSGAEVKKPGASVKVSCKASGYTFTSKYYHWVRQAPGQGLEWMGIINPTSGSTSYAQKFQGRVTMTRDTSTSTVYMELSSLRSEDTAVYYCARDSSRYSGWYFDLWGQGTTVTVSS
VL: AIQLTQSPSSLSASVGDRVTITCRASQGVSTEIAWYQQKPGKAPKLLIYAASSLQSGVPSRFSGSGSGTDFTLTISSLQPEDFATYYCQQYYGYPIAFGQGTRLEIK
B3: RO6D8-011 (antibody, V domains shown)
VH: QVQLVQSGAEVKKPGASVKVSCKASGYTFTNYYMHWVRQAPGQGLEWMGIINPTSGRTSYAQKFQGRVTMTRDTSTSTVYMELSSLRSEDTAVYYCARDSSSWYSGWYFDLWGQGTTVTVSS
VL: AIQMTQSPSSLSASVGDRVTITCRASQGIRTDLAWYQQKPGKAPKLLIYAASSLQSGVPSRFSGSGSGTDFTLTISSLQPEDFATYYCQQYYGYPIAFGQGTRLEIK
notes: it was captured by an anti-human Fc antibody in SPR; also called RO6D8-O11
B4: RO6D8wt (antibody, V domains shown)
VH: QVQLVQSGAEVKKPGASVKVSCKASGYTFTNYYMHWVRQAPGQGLEWMGIINPSGGSTSYAQKFQGRVTMTRDTSTSTVYMELSSLRSEDTAVYYCARDSSSWYSGWYFDLWGQGTTVTVSS
VL: AIQMTQSPSSLSASVGDRVTITCRASQDVRAHLAWYQQKPGKAPKLLIYAASSLQSGVPSRFSGSGSGTDFTLTISSLQPEDFATYYCQQFNSYPITFGQGTRLEIK
notes: it was captured by an anti-human Fc antibody in SPR, so it carries a human Fc; also called wildtype anti-human ROR1 antibody
B5: RO6A-a8gm (antibody, V domains shown)
VH: QVQLVESGGGLVKPGGSLRLSCAASGFTFSDYYMTWIRQAPGKGLEWVSYISGSSAYSNYADSVKGRFTISRDNSKNTLYLQMNSLRAEDTAVYYCARDPLLYGWLTDWGQGTLVTVSS
VL: QSALTQPASVSGSPGQSITISCTGTSSDGGGYDSVSWYQQHPGKAPKLMIYDVNKRPSGVSGRFSGSKSGNTASLTISGLQAEDEADYYCSSFTSDVMVFGGGTKLTVL
notes: it was detected with goat anti-human IgG and compared with an IgG1 isotype control

Tests used:
[1] = target: T1, Human ROR1 protein (UniProt Q01973-1) (human, UniProt Q01973 30-937); assay: flow cytometry on A549 cells (ROR1+)
T1 construct: Endogenous ROR1 of human tumour cell lines; also called ROR1 on A549, Raji (RAJI) and MCF7 cells; cognate antigen expressed at the surface of cells
T1 sequence (Q01973 30-937 limits assumed, one chain of several): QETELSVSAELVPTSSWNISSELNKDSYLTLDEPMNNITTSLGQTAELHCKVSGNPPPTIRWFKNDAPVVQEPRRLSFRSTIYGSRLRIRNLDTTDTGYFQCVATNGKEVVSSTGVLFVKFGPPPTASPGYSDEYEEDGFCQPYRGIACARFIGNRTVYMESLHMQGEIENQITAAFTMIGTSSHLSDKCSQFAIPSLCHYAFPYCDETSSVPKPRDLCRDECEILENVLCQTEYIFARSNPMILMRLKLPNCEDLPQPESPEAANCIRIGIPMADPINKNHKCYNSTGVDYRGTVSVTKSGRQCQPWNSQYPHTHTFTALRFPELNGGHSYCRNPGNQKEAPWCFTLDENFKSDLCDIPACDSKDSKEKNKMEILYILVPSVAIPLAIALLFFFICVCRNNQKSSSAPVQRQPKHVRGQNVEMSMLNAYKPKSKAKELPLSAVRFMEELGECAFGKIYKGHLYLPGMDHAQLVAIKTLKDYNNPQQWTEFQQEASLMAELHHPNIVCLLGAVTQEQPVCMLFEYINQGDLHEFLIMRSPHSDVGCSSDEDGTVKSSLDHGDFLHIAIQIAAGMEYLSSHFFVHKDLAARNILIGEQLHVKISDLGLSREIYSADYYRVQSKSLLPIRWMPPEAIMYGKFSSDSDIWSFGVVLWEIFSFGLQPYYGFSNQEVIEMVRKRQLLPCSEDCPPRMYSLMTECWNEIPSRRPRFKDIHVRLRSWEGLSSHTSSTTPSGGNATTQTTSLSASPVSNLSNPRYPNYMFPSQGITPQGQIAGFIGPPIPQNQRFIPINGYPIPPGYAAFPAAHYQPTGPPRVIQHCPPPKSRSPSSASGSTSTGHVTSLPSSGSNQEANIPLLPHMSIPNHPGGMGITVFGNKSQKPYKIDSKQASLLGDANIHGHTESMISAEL
Experimental: Flow cytometry was used to test antibody binding to adenocarcinomic human alveolar basal epithelial cell line A549 (ROR1+) and immortalized line of human T lymphocyte cell line Jurkat (ROR1 negative), using various anti-ROR1 antibodies. The cells were prepared at concentration of 1×10⁶/ml in FACS buffer (PBS, 2% FBS, and 0.05% azide). Cells were plated at 30 μl/well in a V-bottom 96-well plate. Anti-ROR1 antibodies (with RO6D8wt used as control) were diluted in FACS buffer (5X serial dilution starting from 50 μg/ml) and 30 μl was added to each well with either A549 or Jurkat cells for 60 min on ice. After incubation, the cells were centrifuged at 2000 rpm for 5 minutes, flip out supernatant. After 1 wash with 200 μL/well of FACS buffer, cells were incubated with an AF647 goat anti-human Fab2 antibody (Jackson ImmunoResearch; Cat. No. 109-606-088) (dilution 1:2000 in FACS buffer) at 50 μL/well for 40 min on ice. After incubation, the cells were centrifuged at 2000 rpm for 5 minutes, flip out supernatant. After 1 wash with 200 μL/well of FACS buffer cells were resuspended in 30 μl of FACS buffer and acquired by flow cytometry using IntelliCyt readout.

[2] = target: T2, Recombinant truncated human his-tag ROR1 Ig-like domain (human, UniProt Q01973 39-151); assay: ELISA, antibody coated at 5 ug/mL, his-tagged antigen at 2 ug/ml, anti-his HRP
T2 construct: also called human his-tag ROR1 Ig-like domain C-his; human ROR1 Ig-like domain
T2 sequence (Q01973 other isoform, or with tags, fused parts or gaps limits assumed): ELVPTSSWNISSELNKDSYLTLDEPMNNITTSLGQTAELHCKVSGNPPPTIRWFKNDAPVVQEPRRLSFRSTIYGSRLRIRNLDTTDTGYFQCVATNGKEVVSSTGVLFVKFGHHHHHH
Experimental: (§1) Cross-reactivity of the anti-human ROR1 antibodies with his-tagged ROR1 recombinant protein from human and mouse, were analyzed by ELISA assay. The antibodies 5 μg/mL (RO6D8wt, RO6D8-s10, RO6D8-glv1011, RO6D8-jlv1011, RO6D8-1v1011) were diluted with PBS buffer and coated on a plate at 50 μL per well or control buffers coated on a plate at 50 μL per well. The plate was washed three times with 150 μL/well of PBS-T (PBSIX supplemented with 0.05% Tween 20). Subsequently, the plate was blocked with 100 μL/well of blocking buffer (blocker Casein in PBS from Bioworld, Cat. No. 40320020-2) for 1 hour at RT. The plates were washed 3 times with 150 μL/well of PBS-T, after blocking. Recombinant mouse his-tag ROR1, 2 μg/ml (Acro Biosystems Cat. No. RO1-M5221, Lot: 1201-48ESI-65), human his-tag ROR1 extracellular domain (SEQ ID NO:2), 1 μg/ml (Acro Biosystems Cat. No. RO1-H522Y, lot: C81-76KF1-FR), human his-tag ROR1 Ig-like domain C-his, 2 μg/ml (Acro Biosystems Cat. No. RO1-H5221, Lot: B311-59SSI-CA), human his-tag CD138, 2 μg/ml (Sino Cat. No. 11429-H08H, Lot: LCL07NO0412) (negative control antibody), and Casein/PBS buffer (control). 30 μl of his-tagged ROR1 antigen, his tagged CD138 or Casein/PBS buffer were added to the plate, per well, and incubated for 1 hour at room temperature. The plate was washed three times with 150 μL/well of PBS-T and anti 6x-his (SEQ ID NO:58) tag antibody HRP (Abcam; Cat. No. Ab1187) was incubated at dilution 1:5,000, 30 μL/well for 1 hour at RT. […] The signal was stopped at the desired saturation point by using 15 μL/well of 2 N sulfuric acid (H₂SO₄) stop solution and read on a plate reader at 450 nm.

[3] = target: T3, Recombinant truncated human his-tag ROR1 extracellular domain protein (human, UniProt Q01973 30-403); assay: SPR (Biacore T200), antibody captured by anti-human Fc, his-tagged ROR1 ECD as analyte
T3 construct: the tag is part of the entry; also called his-tagged ROR1 protein; human ROR1 ECD
T3 sequence (Q01973 other isoform, or with tags, fused parts or gaps limits assumed): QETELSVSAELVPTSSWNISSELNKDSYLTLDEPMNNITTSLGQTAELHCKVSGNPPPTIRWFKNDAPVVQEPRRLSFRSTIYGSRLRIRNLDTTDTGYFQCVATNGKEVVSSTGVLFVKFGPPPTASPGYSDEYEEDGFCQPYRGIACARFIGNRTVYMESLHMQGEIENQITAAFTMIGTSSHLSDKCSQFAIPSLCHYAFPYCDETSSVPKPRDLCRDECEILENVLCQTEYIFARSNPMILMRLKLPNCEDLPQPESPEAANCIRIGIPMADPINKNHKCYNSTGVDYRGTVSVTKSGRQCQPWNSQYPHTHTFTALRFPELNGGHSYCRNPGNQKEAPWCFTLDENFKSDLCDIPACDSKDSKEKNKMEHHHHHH
Experimental: Binding kinetics of anti-ROR1 antibodies with his-tagged ROR1 protein were measured using surface plasmon resonance (SPR). The anti-ROR1 antibodies tested included proprietary antibodies RO6D8 wt, RO6D8-s10, RO6D8-jlv1011, and RO6D8-011. Anti-human fragment crystallizable region (Fc region) antibody was immobilized on a CM5 sensor chip to approximately 8,000 RU using standard N-hydroxysuccinimide/N-Ethyl-N′-(3-dimethylaminopropyl) carbodiimide hydrochloride (NHS/EDC) coupling methodology. The anti-ROR1 antibodies (1-2 μg/mL) were captured for 60 seconds at a flow rate of 10 μL/minute. The his-tagged ROR1 protein included amino acid 30 to amino acid 403 of SEQ ID NO: 1 (i.e., SEQ ID NO:2) (Acro Biosystems; Cat. No. RO1-H522Y). This polypeptide was serially diluted in a running buffer of 0.01 M HEPES pH 7.4, 0.15 M NaCl, 3 mM EDTA, 0.05% v/v Surfactant P20 (HBS-EP+) and run at 6 different dilutions. All measurements were conducted in HBS-EP+ buffer with a flow rate of 30 μL/minute. A 1:1 (Langmuir) binding model was used to fit the data. All BIACORE assays were performed at room temperature using Biacore T200 surface plasmon resonance (GE Healthcare).

[4] = target: T3, Recombinant truncated human his-tag …; assay: ELISA, antibody coated at 5 ug/mL, his-tagged antigen at 1 ug/ml, anti-his HRP
Experimental: as §1, with “(control).” for “(control). 30 μl of his-tagged ROR1 antigen, his tagged CD138 or Casein/PBS buffer were added to the plate, per well, and incubated for 1 hour at room temperature. The plate was washed three times with 150 μL/well of PBS-T and anti 6x-his (SEQ ID NO:58) tag antibody HRP (Abcam; Cat. No. Ab1187) was incubated at dilution 1:5,000, 30 μL/well for 1 hour at RT.”

[5] = target: T1, Human ROR1 protein (UniProt Q01973-1); assay: flow cytometry on A549, Raji and MCF7 cells (ROR1+)
Experimental: Flow cytometry was used to test antibody binding to adenocarcinomic human alveolar basal epithelial cell line A549 (ROR1+), Burkitt's lymphoma cell line RAJI (ROR1+), breast cancer cell line (ROR1+), A549 ROR1-KO cell line (ROR1 knockout) which is ROR1 negative, and Duke's type B adenocarcinoma cell line LS174T (ROR1 negative).
The cells were re-suspended in 120 µL/well of FACS buffer containing Goat anti-human IgG AF647 (1:2,000, Southern Biotech, Cat No. 2040-31, Lot No. D1817-T817C) and plate was incubated for 20 minutes at 4° C. in the dark.
FIGS. 4A-E show anti-human ROR1 antibodies RO6D8-s10, RO6D8-jlv1011, RO6A-a7gm and RO6A-a8gm binding to ROR1-expressing A549 (FIG. 4A), Raji (FIG. 4B), and MCF7 (FIG. 4C) cells; and ROR1 negative A549 ROR1-KO (FIG. 4D) and LS174T (FIG. 4E) cells.

| Binder | binding result [1] | binding result [2] | binding result [3] | binding result [4] | binding result [5] |
| --- | --- | --- | --- | --- | --- |
| B1 | binds | binds | binds |  |  |
| B2 | binds | binds | binds |  |  |
| B3 |  |  | binds |  |  |
| B4 | binds | binds |  | binds |  |
| B5 |  |  |  |  | binds |

— patent US20250084163A1 (SORRENTO THERAPEUTICS, published 2025)
